Reference: US20160222100A1

Tests used:
[1] = molecular target: secreted neuroligin-3 in conditioned medium of optogenetically stimulated Thy1::ChR2 mouse cortical slices (mouse); assay: cell-based or functional assay
[2] = molecular target: recombinant full-length neuroligin-3 (Origene) (mouse) (UniProt Q8BYM5); assay: cell-based or functional assay
UniProt Q8BYM5, sequence (Q8BYM5 35-825 limits assumed): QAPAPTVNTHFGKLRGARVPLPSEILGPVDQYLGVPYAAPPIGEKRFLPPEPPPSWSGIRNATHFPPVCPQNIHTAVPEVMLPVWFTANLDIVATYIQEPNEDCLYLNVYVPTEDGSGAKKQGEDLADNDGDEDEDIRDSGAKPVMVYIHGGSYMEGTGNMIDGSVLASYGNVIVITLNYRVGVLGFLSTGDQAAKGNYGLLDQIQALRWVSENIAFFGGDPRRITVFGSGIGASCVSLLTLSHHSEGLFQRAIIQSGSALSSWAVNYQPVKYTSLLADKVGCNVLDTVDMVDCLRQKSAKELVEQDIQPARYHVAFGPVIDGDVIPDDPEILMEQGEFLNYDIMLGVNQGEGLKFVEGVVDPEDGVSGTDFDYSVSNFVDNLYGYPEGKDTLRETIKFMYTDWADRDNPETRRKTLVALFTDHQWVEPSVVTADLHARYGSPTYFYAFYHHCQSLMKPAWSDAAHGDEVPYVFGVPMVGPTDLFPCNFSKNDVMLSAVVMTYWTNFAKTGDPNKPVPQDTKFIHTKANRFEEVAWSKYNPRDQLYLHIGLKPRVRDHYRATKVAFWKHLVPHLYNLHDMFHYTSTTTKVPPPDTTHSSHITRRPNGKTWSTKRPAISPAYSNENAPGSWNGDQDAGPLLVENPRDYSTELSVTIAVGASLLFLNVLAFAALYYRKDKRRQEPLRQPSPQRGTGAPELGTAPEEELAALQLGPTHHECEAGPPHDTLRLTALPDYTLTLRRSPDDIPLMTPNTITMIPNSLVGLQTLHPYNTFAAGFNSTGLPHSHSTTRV

In the case of “neurexin-1β (recombinant, R&D Systems) (ligand)”, the proliferation index of pHGG (SU-pcGBM2) cells, EdU assay, 24 h [1] is reported as 0.34 and the proliferation index of pHGG (SU-pcGBM2) cells, EdU assay, 24 h [2] is reported as 0.28.
